From patent US20240360214A1 (Pfizer, published 2024)

Assays:
[1] = target: T1, LILRB2 expressed on THP1 cells (human, UniProt Q8N423 22-597); test: flow cytometry competition with PE HLA-G tetramer on THP1-LILRB2 cells (THPB2)
T1 construct: whole, on cells; also called THP1 LILRB2 expressing cells; THP1-LILRB2 cells
Procedure: (§1) LILRB1 or LILRB2 overexpressing THP1 cells were prepared in FACS buffer (0.5% BSA in PBS) and seeded in 100 μl/well (96 well plate) at 1λ10⁶ cells/ml concentration. The tested antibodies were serially diluted 3-fold into assay buffer starting from 200 nM. 40 μl of serial diluted antibody together with 40 μl of PE labelled HLA-G tetramer (FRED HUTCH IMT40509) at 2 ug/ml were added to each well and incubated on ice for 1 hour. The cells were washed 2 times with FACS buffer and resuspended in 50 μl/well FACS buffer containing 1:1000 dilution of LIVE/Dead fixable violet dead cell stain (Invitrogen #L34964), incubated on ice for 15 minutes. The cells were then washed with FACS buffer for 2 times and resuspended in 80 μl of Cytofix buffer (BD Cat #554655).

[2] = target: T1, LILRB2 expressed on THP1 cells; test: flow cytometry competition with PE HLA-G tetramer on THP1-LILRB2 cells; upper end of the printed range 1.7-6 nM
Procedure: as §1

[3] = target: huLILRA2 (human, UniProt Q8N149 24-449, limits assumed); test: SPR (Biacore), antibody captured
huLILRA2, sequence (Q8N149 24-449 limits assumed): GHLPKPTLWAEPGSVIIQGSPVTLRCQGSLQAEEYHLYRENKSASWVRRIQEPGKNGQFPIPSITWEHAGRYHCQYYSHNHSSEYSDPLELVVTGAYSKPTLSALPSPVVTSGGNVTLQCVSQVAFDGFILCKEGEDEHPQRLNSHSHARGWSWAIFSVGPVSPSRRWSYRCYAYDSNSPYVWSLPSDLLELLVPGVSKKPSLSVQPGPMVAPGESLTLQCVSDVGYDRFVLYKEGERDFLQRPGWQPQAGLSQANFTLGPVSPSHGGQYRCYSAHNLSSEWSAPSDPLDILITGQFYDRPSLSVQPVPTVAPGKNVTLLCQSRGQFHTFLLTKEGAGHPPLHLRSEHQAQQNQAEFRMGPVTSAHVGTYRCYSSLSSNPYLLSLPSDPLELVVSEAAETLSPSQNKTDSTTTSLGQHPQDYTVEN

[4] = target: huLILRA5 (human, UniProt A6NI73 42-268, limits assumed); test: SPR (Biacore), antibody captured
huLILRA5, sequence (A6NI73 42-268 limits assumed): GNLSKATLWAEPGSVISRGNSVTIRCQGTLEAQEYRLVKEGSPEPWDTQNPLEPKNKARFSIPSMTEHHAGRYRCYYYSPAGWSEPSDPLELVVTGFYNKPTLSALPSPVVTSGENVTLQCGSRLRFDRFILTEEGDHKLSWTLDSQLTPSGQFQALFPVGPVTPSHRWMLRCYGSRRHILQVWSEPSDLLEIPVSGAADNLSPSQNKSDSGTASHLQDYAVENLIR

[5] = target: huLILRA1 (human, UniProt O75019 17-461, limits assumed); test: SPR (Biacore), antibody captured
huLILRA1, sequence (O75019 17-461 limits assumed): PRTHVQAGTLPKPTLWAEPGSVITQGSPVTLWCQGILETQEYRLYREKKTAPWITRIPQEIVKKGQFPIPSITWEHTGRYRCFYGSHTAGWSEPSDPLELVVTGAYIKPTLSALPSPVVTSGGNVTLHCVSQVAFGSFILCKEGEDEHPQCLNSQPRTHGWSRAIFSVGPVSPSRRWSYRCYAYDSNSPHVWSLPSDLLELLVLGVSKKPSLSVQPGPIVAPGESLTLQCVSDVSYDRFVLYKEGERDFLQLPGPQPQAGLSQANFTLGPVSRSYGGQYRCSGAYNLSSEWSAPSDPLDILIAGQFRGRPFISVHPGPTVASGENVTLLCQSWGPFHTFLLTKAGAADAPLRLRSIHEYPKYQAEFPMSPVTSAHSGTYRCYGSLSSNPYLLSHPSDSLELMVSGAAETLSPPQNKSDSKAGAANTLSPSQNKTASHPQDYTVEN

[6] = target: T2, human LILRB2 (huLILRB2), purified recombinant protein (human, UniProt Q8N423 22-458, limits assumed); test: SPR (Biacore 8K, 37 C), antibody captured by anti-human Fc, huLILRB2 as analyte, 1:1 fit
T2 construct: Bought protein, used as the SPR analyte and as the ELISA coat; also called huLILIB2
T2 sequence (Q8N423 22-458 limits assumed): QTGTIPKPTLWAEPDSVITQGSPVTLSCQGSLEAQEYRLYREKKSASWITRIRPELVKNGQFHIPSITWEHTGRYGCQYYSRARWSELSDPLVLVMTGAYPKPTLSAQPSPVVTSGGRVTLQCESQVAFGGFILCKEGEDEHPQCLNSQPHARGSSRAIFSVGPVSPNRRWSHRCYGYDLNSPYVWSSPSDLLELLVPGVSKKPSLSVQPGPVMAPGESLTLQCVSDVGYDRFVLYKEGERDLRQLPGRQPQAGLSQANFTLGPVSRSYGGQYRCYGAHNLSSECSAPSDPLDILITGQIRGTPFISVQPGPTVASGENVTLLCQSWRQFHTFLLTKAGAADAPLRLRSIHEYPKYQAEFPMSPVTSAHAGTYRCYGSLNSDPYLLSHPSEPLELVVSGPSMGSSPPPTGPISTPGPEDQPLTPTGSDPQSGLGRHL
Procedure: Biacore kinetic assays were conducted at 37° C. with a collection rate of 10 Hz using the Biacore 8K and 8K+ instruments (Cytiva). […] The final capture levels of the antibodies ranged from 20 resonance units (RU) to 60 RU. HBS-EP+pH 7.4 (10 mM HEPES pH 7.4, 150 mM NaCl, 3 mM EDTA, 0.05% Tween 20) was used as sample and running buffer. Flow cell 1 was used as a reference flow cell. Two-fold serial dilutions of human LILRB2 or LILRB1 (R&D Systems, Catalog number: 8429-T4) were prepared with concentrations from 45 nM to 1.667 nM for LILRB2; 405 nM to […] for LILRB1. Dilutions were prepared in duplicate and injected over all flow cells for 60 s at flow rate of 50 μl per minute. Dissociation was monitored for 600 s and the surface was regenerated with two 30 s injections of 3M MgCl₂ at flow rate of 50 μl per minute. The resulting data was double referenced (Myszka, D. G. Improving biosensor analysis. J. Mol. Recognit. 12:279-284; (1999). Rate constants and affinities were determined by fitting the sensorgram data to a Langmuir 1:1 model using Biacore Insight Evaluation software version 3.0.12 (Cytiva).

[7] = target: T1, LILRB2 expressed on THP1 cells; test: flow cytometry competition with PE HLA-G tetramer on THP1-LILRB2 cells; lower end of the printed range 1.7-6 nM
Procedure: as §1

T1 sequence (Q8N423 22-597): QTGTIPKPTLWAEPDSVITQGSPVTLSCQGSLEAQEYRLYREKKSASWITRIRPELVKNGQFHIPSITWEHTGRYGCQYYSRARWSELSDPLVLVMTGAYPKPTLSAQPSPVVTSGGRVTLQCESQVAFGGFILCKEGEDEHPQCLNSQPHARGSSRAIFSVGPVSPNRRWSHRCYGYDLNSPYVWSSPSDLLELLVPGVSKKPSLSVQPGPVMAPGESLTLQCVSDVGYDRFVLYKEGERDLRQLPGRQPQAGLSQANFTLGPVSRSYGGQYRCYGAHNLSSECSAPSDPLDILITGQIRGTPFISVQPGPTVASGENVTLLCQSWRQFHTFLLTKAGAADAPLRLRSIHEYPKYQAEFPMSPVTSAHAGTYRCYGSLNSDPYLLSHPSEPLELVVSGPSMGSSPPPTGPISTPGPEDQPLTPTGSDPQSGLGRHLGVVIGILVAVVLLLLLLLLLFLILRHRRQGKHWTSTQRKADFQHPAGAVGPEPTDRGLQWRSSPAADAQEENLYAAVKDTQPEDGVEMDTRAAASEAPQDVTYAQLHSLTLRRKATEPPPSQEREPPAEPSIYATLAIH

B1: anti-LILRB2 antibody Ab-B2-1825 (antibody, human IgG1, lambda, V domains shown)
VH: EVQLLESGGGLVQPGGSLRLSCAASGFTFSSYAMSWVRQAPGKGLEWVSAISGSGGSTYYADSVKGRFTISRDNSKNTLYLQMNSLRAEDTAVYYCWRWLNLGDAFDIWGQGTMVTVSS
VL: QSVLTQPPSASGTPGQRVTISCTGSSSNIGSNTVNWYQQLPGTAPKLLIYSDNQRPSGVPDRFSGSTSGTSASLAISGLRSEDEADYFCATWEDVLAGYVVFGGGTKLTVLG
For B1, the EC50 [1] was 3.43 nM, the IC50 [2] was ≤ 6 nM and the binding result [3] was “no binding”. The binding result [4] was “no binding”, the binding result [5] was “no binding” and the Kd [6] was 0.59 nM. The koff [6] was 0.000276 s⁻¹, the kon [6] was 810000 M⁻¹ s⁻¹ and the “t½” value [6] was 54.2 min. The IC50 [7] was ≥ 1.7 nM.
